The target of the assay is cleaved SVS-Dlp (SVS-Dlp coexpressed with Mmp2-FLAG, cleaved in the N-terminal polypeptide) (Drosophila). Description: co-IP; S2R+ cells cotransfected with SVS-dlp and a Wnt, with or without Mmp2-FLAG; clarified lysate (2 mM Tris HCl, 150 mM NaCl, 1% NP-40 substitute, 1 mM EDTA, 5% glycerol, pH 7.4) on GFP-Trap Magnetic Agarose beads, 30 min at 4°C; Western blot under reducing conditions. (In general: Immunoblotting shows a protein as a band on a membrane.)

As to Wnt6-3XHA (ligand), the fold increase of Wnt pulled down against uncleaved Dlp (median) turned out to be 2.7 fold.

B1: Wnt2-3XHA (ligand)
chain: FTSVMLCGRIPGLTPGQRNMCREMPDALIALGEGHQLGAQECQHQFRGHRWNCSEVWQRNVFAHVIPTASREAAYTYAIASAGAAYAVTAACARGNISTCGCDVRHKATPTGGGTPDEPWKWGGCSADVDFGMRYARRFMDARELERDSRTLMNLHNNRAGRTLVKKMLRTDCKCHGVSGSCVMKTCWKSLPPFRLVGDRLMLKYQKAKTVQAVKGKRGLRLVLSRKKHAGTARAQKPVLDWPKRMELIYLEASPNYCERSLQTGSQGTSGRTCQRTGHGPQSCDLLCCGRGHNTQHIRRTTQCRCQFRWCCEVKCDECDESYEEFTCK
Take B1: the fold increase of Wnt pulled down against uncleaved Dlp (median) was 6.2 fold.

B2: Wg-HA (Wingless with 3XHA tag) (ligand)
chain: GSSLSQVEGKQKSGRGRGSMWWGIAKVGEPNNITPIMYMDPAIHSTLRRKQRRLVRDNPGVLGALVKGANLAISECQHQFRNRRWNCSTRNFSRGKNLFGKIVDRGCRETSFIYAITSAAVTHSIARACSEGTIESCTCDYSHQSRSPQANHQAGSVAGVRDWEWGGCSDNIGFGFKFSREFVDTGERGRNLREKMNLHNNEAGRAHVQAEMRQECKCHGMSGSCTVKTCWMRLANFRVIGDNLKARFDGATRVQVTNSLRATNALAPVSPNAAGSNSVGSNGLIIPQSGLVYGEEEERMLNDHMPDILLENSHPISKIHHPNMPSPNSLPQAGQRGGRNGRRQGRKHNRYHFQLNPHNPEHKPPGSKDLVYLEPSPSFCEKNLRQGILGTHGRQCNETSLGVDGCGLMCCGRGYRRDEVVVVERCACTFHWCCEVKCKLCRTKKVIYTCL
On to B2, for which the fold increase of Wg pulled down, normalized to the amount of Dlp, against uncleaved Dlp (median) is 2.7 fold.

B3: Wnt4-3XFLAG (ligand)
chain: QVRNEDQLLMVGQNGDLDSSNPAIHHQQHQQHQQHQQHQQHQSNHNLNNGNMNSTILNTLMGNNAGQVVNSSPGGGGSMINQLGSSTSSVPSVIGGGVGSVGNPWHSAVGLGVPGNGMGLPSSHGLGGNMGSHPHGHALAGLAKLGIIVPGGQGLPGNLGYGGTMLNGGGVGGAAGMGLGIGSNTNNMDMQQGLYNEHFISEHTVMAVFTSQGQVGGPCRYMPATRRQNHQCRKETGLPGTLSEARRLATTHCEEQFRYDRWNCSIETRGKRNIFKKLYKETAFVHALTAAAMTHSIARACAEGRMTKCSCGPKKHNREAQDFQWGGCNDNLKHGKRVTRSFLDLRGGDGDEVSEILRHDSEVGIEAVSSQMMDKCKCHGVSGSCSMKTCWKKMADFNATATLLRQKYNEAIRKAPNQRSMRQVSSSRMKKPKQRRKKPQQSQYTTLYYLETSPSYCAVTKDRQCLHPDNCGTLCCGRGYTTQVVKQVEKCRCRFNNGRCCQLICDYCQRLENKYFCK
On to B3, for which the fold increase of Wnt pulled down against uncleaved Dlp (median) is 5.9 fold.

Values taken from paper PMC12636523.
